39 variants from the Human Domainome abundance scans (Beltran et al. 2025) can be followed below.

B1: POU domain, class 2, transcription factor 2, residues 200 to 269; numbered along this chain, P09086 (parent)
chain: LEELEQFARTFKQRRIKLGFTQGDVGLAMGKLYGNDFSQTTISRFEALNLSFKNMCKLKPLLEKWLNDAE

± gives the uncertainty stated by the source.

The variants in the series derive from B1. The series can be described thus: abundance fitness (aPCA) (normalised: wild type 0, dead -1); higher = more abundant; growth selection in yeast, the domain comes from the species named. The note with it: Homo sapiens.
As to LEELEQFARTFKQRRIKLGFTQGDVGLAMGKLYGNDFSQTTISRFEALDLSFKNMCKLKPLLEKWLNDAE [N49D], the abundance fitness came out at 0.049 ± 0.063. For the variant LEELEQFARTFKQRRIKLGFTQGDVGLAMGKLYGNDFSQTTISRFEALFLSFKNMCKLKPLLEKWLNDAE [N49F], the abundance fitness was -0.219 ± 0.065. Next, LEELEQFARTFKQRRIKLGFTQGDVGLAMGKLYGNDFSQTTISRFEALILSFKNMCKLKPLLEKWLNDAE [N49I]: -0.037 ± 0.059. Then LEELEQFARTFKQRRIKLGFTQGDVGLAMGKLYGNDFSQTTISRFEALCLSFKNMCKLKPLLEKWLNDAE [N49C], with 0.012 ± 0.043; and LEELEQFARTFKQRRIKLGFTQGDVGLAMGKLYGNDFSQTTISRFEALGLSFKNMCKLKPLLEKWLNDAE [N49G], with -0.004 ± 0.033; and LEELEQFARTFKQRRIKLGFTQGDVGLAMGKLYGNDFSQTTISRFEALELSFKNMCKLKPLLEKWLNDAE [N49E], with 0.07 ± 0.044. Turning to LEELEQFARTFKQRRIKLGFTQGDVGLAMGKLYGNDFSQTTISRFEALKLSFKNMCKLKPLLEKWLNDAE [N49K], the abundance fitness was -0.007 ± 0.047. Consider LEELEQFARTFKQRRIKLGFTQGDVGLAMGKLYGNDFSQTTISRFEALHLSFKNMCKLKPLLEKWLNDAE [N49H], for which the abundance fitness is -0.018 ± 0.058. Next, LEELEQFARTFKQRRIKLGFTQGDVGLAMGKLYGNDFSQTTISRFEALLLSFKNMCKLKPLLEKWLNDAE [N49L]: -0.032 ± 0.034; LEELEQFARTFKQRRIKLGFTQGDVGLAMGKLYGNDFSQTTISRFEALALSFKNMCKLKPLLEKWLNDAE [N49A]: -0.026 ± 0.036. Next, LEELEQFARTFKQRRIKLGFTQGDVGLAMGKLYGNDFSQTTISRFEQLNLSFKNMCKLKPLLEKWLNDAE [A47Q]: 0.035 ± 0.058; LEELEQFARTFKQRRIKLGFTQGDVGLAMGKLYGNDFSQTTISRFEPLNLSFKNMCKLKPLLEKWLNDAE [A47P]: -0.641 ± 0.11; LEELEQFARTFKQRRIKLGFTQGDVGLAMGKLYGNDFSQTTISRFENLNLSFKNMCKLKPLLEKWLNDAE [A47N]: -0.019 ± 0.085. For the variant LEELEQFARTFKQRRIKLGFTQGDVGLAMGKLYGNDFSQTTISRFESLNLSFKNMCKLKPLLEKWLNDAE [A47S], the abundance fitness came out at 0.053 ± 0.042.

Regarding LEELEQFARTFKQRRIKLGFTQGDVGLAMGKLYGNDFSQTTISRFEMLNLSFKNMCKLKPLLEKWLNDAE [A47M], the abundance fitness was -0.036 ± 0.065.

As for LEELEQFARTFKQRRIKLGFTQGDVGLAMGKLYGNDFSQTTISRFEYLNLSFKNMCKLKPLLEKWLNDAE [A47Y], the abundance fitness was -0.26 ± 0.091.

Turning to LEELEQFARTFKQRRIKLGFTQGDVGLAMGKLYGNDFSQTTISRFEWLNLSFKNMCKLKPLLEKWLNDAE [A47W], the abundance fitness is -0.325 ± 0.053.

LEELEQFARTFKQRRIKLGFTQGDVGLAMGKLYGNDFSQTTISRFEKLNLSFKNMCKLKPLLEKWLNDAE [A47K]: the abundance fitness is -0.054 ± 0.083. Next, LEELEQFARTFKQRRIKLGFTQGDVGLAMGKLYGNDFSQTTISRFERLNLSFKNMCKLKPLLEKWLNDAE [A47R]: -0.085 ± 0.036; LEELEQFARTFKQRRIKLGFTQGDVGLAMGKLYGNDFSQTTISRFEILNLSFKNMCKLKPLLEKWLNDAE [A47I]: -0.037 ± 0.11; LEELEQFARTFKQRRIKLGFTQGDVGLAMGKLYGNDFSQTTISRFEVLNLSFKNMCKLKPLLEKWLNDAE [A47V]: -0.125 ± 0.041.

With LEELEQFARTFKQRRIKLGFTQGDVGLAMGKLYGNDFSQTTISRFELLNLSFKNMCKLKPLLEKWLNDAE [A47L], the abundance fitness is -0.032 ± 0.037.

Regarding LEELEQFARTFKQRRIKLGFTQGDVGLAMGKLYGNDFSQTTISRFETLNLSFKNMCKLKPLLEKWLNDAE [A47T], the abundance fitness worked out at 0.017 ± 0.05. Next, LEELEQFARTFKQRRIKLGFTQGDVGLAMGKLYGNDFSQTTISRFEANNLSFKNMCKLKPLLEKWLNDAE [L48N]: -0.026 ± 0.076. Then LEELEQFARTFKQRRIKLGFTQGDVGLAMGKLYGNDFSQTTISRFEASNLSFKNMCKLKPLLEKWLNDAE [L48S], with 0.028 ± 0.041; and LEELEQFARTFKQRRIKLGFTQGDVGLAMGKLYGNDFSQTTISRFEAQNLSFKNMCKLKPLLEKWLNDAE [L48Q], with -0.011 ± 0.06; and LEELEQFARTFKQRRIKLGFTQGDVGLAMGKLYGNDFSQTTISRFEACNLSFKNMCKLKPLLEKWLNDAE [L48C], with 0.049 ± 0.061. In the case of LEELEQFARTFKQRRIKLGFTQGDVGLAMGKLYGNDFSQTTISRFEAMNLSFKNMCKLKPLLEKWLNDAE [L48M], the abundance fitness is -0.031 ± 0.089.

For the variant LEELEQFARTFKQRRIKLGFTQGDVGLAMGKLYGNDFSQTTISRFEAKNLSFKNMCKLKPLLEKWLNDAE [L48K], the abundance fitness was determined as 0.07 ± 0.076. Then LEELEQFARTFKQRRIKLGFTQGDVGLAMGKLYGNDFSQTTISRFEAWNLSFKNMCKLKPLLEKWLNDAE [L48W], with -0.158 ± 0.04; and LEELEQFARTFKQRRIKLGFTQGDVGLAMGKLYGNDFSQTTISRFEAPNLSFKNMCKLKPLLEKWLNDAE [L48P], with -0.472 ± 0.072. Next, LEELEQFARTFKQRRIKLGFTQGDVGLAMGKLYGNDFSQTTISRFEAVNLSFKNMCKLKPLLEKWLNDAE [L48V]: 0.018 ± 0.045. Then LEELEQFARTFKQRRIKLGFTQGDVGLAMGKLYGNDFSQTTISRFEAENLSFKNMCKLKPLLEKWLNDAE [L48E], with 0.014 ± 0.061; and LEELEQFARTFKQRRIKLGFTQGDVGLAMGKLYGNDFSQTTISRFEAYNLSFKNMCKLKPLLEKWLNDAE [L48Y], with -0.329 ± 0.1. Take LEELEQFARTFKQRRIKLGFTQGDVGLAMGKLYGNDFSQTTISRFEADNLSFKNMCKLKPLLEKWLNDAE [L48D]: the abundance fitness was -0.27 ± 0.092.

Regarding LEELEQFARTFKQRRIKLGFTQGDVGLAMGKLYGNDFSQTTISRFEAFNLSFKNMCKLKPLLEKWLNDAE [L48F], the abundance fitness was 0.056 ± 0.077. Next, LEELEQFARTFKQRRIKLGFTQGDVGLAMGKLYGNDFSQTTISRFEAANLSFKNMCKLKPLLEKWLNDAE [L48A]: 0.053 ± 0.053. Next, LEELEQFARTFKQRRIKLGFTQGDVGLAMGKLYGNDFSQTTISRFEAINLSFKNMCKLKPLLEKWLNDAE [L48I]: -0.029 ± 0.09. Then LEELEQFARTFKQRRIKLGFTQGDVGLAMGKLYGNDFSQTTISRFEAHNLSFKNMCKLKPLLEKWLNDAE [L48H], with 0.023 ± 0.1.
